Reference: US20240025949A1, “Beta-Arrestin Effectors and Compositions and Methods of Use Thereof” (Trevena, Inc., priority 2021, published 2024)
Where no end group is shown, it is not given here.

How the values were obtained:
[1] = target: human angiotensin 2 type 1 receptor (human) (UniProt P30556); assay: cell-based or functional assay
[2] = target: rat angiotensin 2 type 1 receptor (rat) (UniProt P25095); assay: cell-based or functional assay
Sequence of rat angiotensin 2 type 1 receptor (rat) (P25095 whole entry): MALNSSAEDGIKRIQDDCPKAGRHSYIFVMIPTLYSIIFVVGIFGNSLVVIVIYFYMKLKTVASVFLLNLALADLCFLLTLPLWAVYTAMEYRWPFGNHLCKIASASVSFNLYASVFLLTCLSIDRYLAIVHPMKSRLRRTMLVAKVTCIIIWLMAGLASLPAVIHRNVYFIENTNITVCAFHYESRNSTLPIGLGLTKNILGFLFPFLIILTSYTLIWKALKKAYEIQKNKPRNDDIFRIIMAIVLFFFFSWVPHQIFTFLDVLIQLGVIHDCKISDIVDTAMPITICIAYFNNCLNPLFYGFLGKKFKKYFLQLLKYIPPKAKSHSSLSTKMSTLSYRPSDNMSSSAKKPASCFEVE

Sequence of human angiotensin 2 type 1 receptor (human) (P30556 whole entry): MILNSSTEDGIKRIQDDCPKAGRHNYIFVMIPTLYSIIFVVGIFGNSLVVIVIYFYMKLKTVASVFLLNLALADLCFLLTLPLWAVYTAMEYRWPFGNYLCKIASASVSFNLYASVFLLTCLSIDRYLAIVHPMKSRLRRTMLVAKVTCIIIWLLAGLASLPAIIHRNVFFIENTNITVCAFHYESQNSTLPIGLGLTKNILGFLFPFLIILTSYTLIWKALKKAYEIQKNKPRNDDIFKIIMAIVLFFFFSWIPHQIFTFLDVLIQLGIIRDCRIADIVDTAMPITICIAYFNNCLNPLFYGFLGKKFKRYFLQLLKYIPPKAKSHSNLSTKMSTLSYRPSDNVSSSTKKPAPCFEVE

Row | Molecule | b-arrestin2 Max [1] [%] | IP One Max [2] [%] | b-arrestin2 Max [2] [%] | IP One EC50 [1] [nM] | b-arrestin2 EC50 [1] [nM] | IP One EC50 [2] [nM] | b-arrestin2 EC50 [2] [nM] | IP One Max [1] [%]
1 | SEQ ID NO: 2 (Sar-Arg-Val-Ile-Ile-His-Pro-Ile-NH2) (peptide) | 24.9 | 33.8 |  |  |  | 360 |  | 
2 | SEQ ID NO: 44 (NMAla-Arg-Val-Tyr-Ile-His-Pro-D-Ala-OH) (peptide) | 47.3 | 14.6 | 71.9 | > 10000 | 80 | 8.2 | 65 | 
3 | SEQ ID NO: 10 (Sar-Arg-Val-Tyr-Ile-His-Pro-Ala-NH2) (peptide) |  | 13.3 | 60.3 |  |  |  |  | 
4 | SEQ ID NO: 82 (NM-D-Ala-Arg-Val-Tyr-Ile-His-Pro-D-Ala-OH) (peptide) | 38.3 |  | 60.6 | > 10000 | 320 | > 10000 | 130 | 
5 | SEQ ID NO: 65 (N-Me-Asp-Arg-Val-Tyr-Phe-His-Pro-NH2) (peptide) | 37.8 |  | 67.3 | > 10000 | 2000 | > 10000 | 2800 | 
6 | SEQ ID NO: 66 (N-Me-Glu-Arg-Val-Tyr-Phe-His-Pro-NH2) (peptide) | 30.6 |  | 58.5 | > 10000 | 6700 | > 10000 | 10000 | 
7 | SEQ ID NO: 5 (Sar-Arg-Val-Gly-Val-His-Pro-Gly-OH) (peptide) | 39.4 | 24.8 | 61.7 | 65 | 1600 | 96 | 1900 | 18.1
8 | SEQ ID NO: 3 (Sar-Arg-Val-Ile-Val-His-Pro-Ile-OH) (peptide) | 36.5 | 19.6 | 67.1 | > 10000 | 450 | 41 | 120 | 
9 | SEQ ID NO: 83 (Sar-Arg-Val-Tyr-NVA-His-Pro-D-Ala-OH) (peptide) | 34.3 |  | 70.2 | > 10000 | 200 | > 10000 | 50 | 
10 | ARVYVHPA (N-methyl residue; C-terminal acid) [SEQ ID NO: 33 (NMAla-Arg-Val-Tyr-Val-His-Pro-Ala-OH)] | 54.9 |  | 86.9 | > 10000 | 40 | > 10000 | 31 | 
11 | RVYFHPA (N-terminal Sar; C-terminal acid) [SEQ ID NO: 21 (Sar-Arg-Val-Tyr-Phe-His-Pro-Ala-OH)] | 64.4 |  | 82.7 | > 10000 | 33 | > 10000 | 13 | 
12 | RVYHHPA (N-terminal Sar; C-terminal acid) [SEQ ID NO: 22 (Sar-Arg-Val-Tyr-His-His-Pro-Ala-OH)] | 54.5 | 5.2 | 74.3 | > 10000 | 270 | 250 | 27 | 
13 | RVYIHP (N-terminal Sar; C-terminal norvaline) [SEQ ID NO: 35 (Sar-Arg-Val-Tyr-Ile-His-Pro-NVA-OH)] | 67.9 | 30.5 | 79.8 | 2.7 | 12 | 12 | 9.3 | 7.1
14 | RVYYHPA (N-terminal Sar; C-terminal acid) [SEQ ID NO: 19 (Sar-Arg-Val-Tyr-Tyr-His-Pro-Ala-OH)] | 67.9 |  | 91.2 | > 10000 | 31 | > 10000 | 18 | 
15 | RVYKHPA (N-terminal Sar; C-terminal acid) [SEQ ID NO: 23 (Sar-Arg-Val-Tyr-Lys-His-Pro-Ala-OH)] | 61.2 | 10.3 | 84.9 | > 10000 | 44 | 11 | 39 | 
16 | RVYYHP (N-terminal Sar; C-terminal amide) [SEQ ID NO: 26 (Sar-Arg-Val-Tyr-Tyr-His-Pro-NH2)] | 51.9 |  | 77.3 | > 10000 | 75 | > 10000 | 38 | 
17 | RVYYHP (N-terminal Sar; C-terminal D-Phe) [SEQ ID NO: 28 (Sar-Arg-Val-Tyr-Tyr-His-Pro-D-Phe-OH)] | 82.9 | 24.6 | 91.4 | > 10000 | 20 | 64 | 19 | 
18 | FVYIHPFVYIHPFVYIHP (cyclic) [SEQ ID NO: 37 (Cyclo(Phe-Val-Tyr-Ile-His-Pro-Phe-Val-Tyr-Ile-His-Pro-Phe-Val-Tyr-Ile-His-Pro))] | 62.3 | 14.7 | 60.7 | > 10000 | 1700 | 240 | 1900 | 
19 | DRVYYHP-NH2 [SEQ ID NO: 57 (Asp-Arg-Val-Tyr-Tyr-His-Pro-NH2)] | 42.1 | 35.3 | 64.4 | 3.6 | 430 | 330 | 450 | 10
20 | RVYIHPRVYIHPRVYIHP (cyclic) [SEQ ID NO: 36 (Cyclo(Arg-Val-Tyr-Ile-His-Pro-Arg-Val-Tyr-Ile-His-Pro-Arg-Val-Tyr-Ile-His-Pro))] | 39.5 | 19.2 | 32.8 | > 10000 | 1200 | 100 | 1900 | 
21 | RVYEHPI (N-terminal Sar; C-terminal acid) [SEQ ID NO: 16 (Sar-Arg-Val-Tyr-Glu-His-Pro-Ile-OH)] | 56.9 | 24.4 | 76.9 | > 10000 | 880 | 92 | 140 | 
22 | ARVYIHPA (N-methyl residue; C-terminal acid) [SEQ ID NO: 34 (NMAla-Arg-Val-Tyr-Ile-His-Pro-Ala-OH)] | 53 |  | 81.7 | > 10000 | 25 | > 10000 | 32 | 

Now from value to molecule:

Row | b-arrestin2 Max [1] [%] | IP One Max [2] [%] | b-arrestin2 Max [2] [%] | IP One EC50 [1] [nM] | b-arrestin2 EC50 [1] [nM] | IP One EC50 [2] [nM] | b-arrestin2 EC50 [2] [nM] | IP One Max [1] [%] | Molecule
23 | 57.9 | 14.1 | 77 |  |  |  |  |  | SEQ ID NO: 25 (Asp-Arg-Val-Tyr-Ile-His-Pro-Ala-OH) (peptide)
24 | 43.3 |  | 64.8 | > 10000 | 590 | > 10000 | 200 |  | SEQ ID NO: 29 (Sar-Arg-Val-OMTyr-Ile-His-Pro-Ala-OH) (peptide)
25 | 36.9 | 11.3 | 41.8 | > 10000 | 210 | 35 | 200 |  | SEQ ID NO: 8 (Sar-Arg-Val-Tyr-Val-His-Pro-Ala-NH2) (peptide)
26 | 50.5 |  | 80.6 | > 10000 | 32 | > 10000 | 16 |  | SEQ ID NO: 84 (Sar-Arg-Val-Tyr-OMTh-His-Pro-D-Ala-OH) (peptide)
27 | 68.2 |  | 80.4 | > 10000 | 9.2 | > 10000 | 8.2 |  | SEQ ID NO: 30 (Sar-Arg-Val-Tyr-OMTh-His-Pro-Ala-OH) (peptide)
28 | 55.6 | 6.8 | 80.2 |  | 79 | 24 | 43 |  | SEQ ID NO: 32 (Me2G-Arg-Val-Tyr-Ile-His-Pro-Ala-OH) (peptide)
29 | 12.1 | 21.9 |  | 110 | 920 | 59 | > 10000 | 14.1 | SEQ ID NO: 6 (Sar-Arg-Val-Gly-Val-His-Pro-Gly-NH2) (peptide)
30 |  | 9.5 | 74 |  |  |  |  |  | SEQ ID NO: 9 (Sar-Arg-Val-Tyr-Ile-His-Pro-Ala-OH) (peptide)
31 | 20.4 |  | 26.9 | > 10000 | 1200 | > 10000 | 870 |  | SEQ ID NO: 64 (Glu-Arg-Val-Tyr-Phe-His-Pro-NH2) (peptide)
32 |  |  | 84.2 |  |  | > 10000 | 16 |  | SEQ ID NO: 27 (Sar-Arg-Val-Tyr-Ile-His-Pro-D-Ala-OH) (peptide)
33 | 43.1 | 20.8 | 66.4 | > 10000 | 680 | 920 | 2500 |  | VYIHPF (cyclic) [SEQ ID NO: 38 (Cyclo(Val-Tyr-Ile-His-Pro-Phe))]
34 | 58.1 | 6.2 | 75.9 | > 10000 | 100 | 13 | 37 |  | RVYVHPA (N-terminal Me2Gly; C-terminal acid) [SEQ ID NO: 31 (Me2G-Arg-Val-Tyr-Val-His-Pro-Ala-OH)]
35 |  |  | 86.6 | > 10000 | > 10000 | > 10000 | 3600 |  | RVYEHPA (N-terminal Sar; C-terminal acid) [SEQ ID NO: 20 (Sar-Arg-Val-Tyr-Glu-His-Pro-Ala-OH)]
36 | 61.3 | 15.1 | 74.1 | > 10000 | 480 | 7.4 | 63 |  | RVYRHPA (N-terminal Sar; C-terminal acid) [SEQ ID NO: 24 (Sar-Arg-Val-Tyr-Arg-His-Pro-Ala-OH)]
37 | 44.3 | 51.1 | 62.1 | 250 | 820 | 77 | 230 | 19.3 | RVYYHPI (N-terminal Sar; C-terminal amide) [SEQ ID NO: 15 (Sar-Arg-Val-Tyr-Tyr-His-Pro-Ile-NH2)]
